Laboratory results as given in patent US20110151454.
Numbering of substitutions follows the chain as printed. In names and notes the source's numbering stands.

B1: λ-phosphatase (protein)
chain: MRYYEKIDGSKYRNIWVVGDLHGCYTNLMNKLDTIGFDNKKDLLISVGDLVDRGAENVECLELITFPWFRAVRGNHEQMMIDGLSERGNVNHWLLNGGGWFFNLDYDKEILAKALAHKADELPLIIELVSKDKKYVICHADYPFDEYEFGKPVDHQQVIWNRERISNSQNGIVKEIKGADTFIFGHTPAVKPLKFANQMYIDTGAVFCGNLTLIQVQGEGA
B2: gst-PPM1J (protein)
chain: MLNRVRSAVAHLVSSGGAPPPRPKSPDLPNAASAPPAAAPEAPRSPPAKAGSGSATPAKAVEARASFSRPTFLQLSPGGLRRADDHAGRAVQSPPDTGRRLPWSTGYAEVINAGKSRHNEDQACCEVVYVEGRRSVTGVPREPSRGQGLCFYYWGLFDGHAGGGAAEMASRLLHRHIREQLKDLVEILQDPSPPPLCLPTTPGTPDSSDPSHLLGPQSCWSSQKEVSHESLVVGAVENAFQLMDEQMARERRGHQVEGGCCALVVIYLLGKVYVANAGDSRAIIVRNGEIIPMSREFTPETERQRLQLLGFLKPELLGSEFTHLEFPRRVLPKELGQRMLYRDQNMTGWAYKKIELEDLRFPLVCGEGKKARVMATIGVTRGLGDHSLKVCSSTLPIKPFLSCFPEVRVYDLTQYEHCPDDVLVLGTDGLWDVTTDCEVAATVDRVLSAYEPNDHSRYTALAQALVLGARGTPRDRGWRLPNNKLGSGDDISVFVIPLGGPGSYS
B3: gst-PPM1H (protein)
chain: MLTRVKSAVANFMGGIMAGSSGSEHGGGSCGGSDLPLRFPYGRPEFLGLSQDEVECSADHIARPILILKETRRLPWATGYAEVINAGKSTHNEDQASCEVLTVKKKAGAVTSTPNRNSSKRRSSLPNGEGLQLKENSESEGVSCHYWSLFDGHAGSGAAVVASRLLQHHITEQLQDIVDILKNSAVLPPTCLGEEPENTPANSRTLTRAASLRGGVGAPGSPSTPPTRFFTEKKIPHECLVIGALESAFKEMDLQIERERSSYNISGGCTALIVICLLGKLYVANAGDSRAIIIRNGEIIPMSSEFTPETERQRLQYLAFMQPHLLGNEFTHLEFPRRVQRKELGKKMLYRDFNMTGWAYKTIEDEDLKFPLIYGEGKKARVMATIGVTRGLGDHDLKVHDSNIYIKPFLSSAPEVRIYDLSKYDHGSDDVLILATDGLWDVLSNEEVAEAITQFLPNCDPDDPHRYTLAAQDLVMRARGVLKDRGWRISNDRLGSGDDISVYVIPLIHGNKLS
B4: flag-PPM1H-H153L (protein)
chain: B3 chain with H153L
B5: flag-PPM1H (protein)
chain: B3 chain

Key:
[1] = molecular target: HA-SKP2 phosphorylated in vitro by AKT (32P-SKP2), Q13309
[2] = molecular target: HA-tagged p27 phosphorylated at T187 by CDK2/cyclinA, P46527
Sequence of HA-tagged p27 phosphorylated at T187 by CDK2/cyclinA, P46527 (P46527 whole entry, looked up): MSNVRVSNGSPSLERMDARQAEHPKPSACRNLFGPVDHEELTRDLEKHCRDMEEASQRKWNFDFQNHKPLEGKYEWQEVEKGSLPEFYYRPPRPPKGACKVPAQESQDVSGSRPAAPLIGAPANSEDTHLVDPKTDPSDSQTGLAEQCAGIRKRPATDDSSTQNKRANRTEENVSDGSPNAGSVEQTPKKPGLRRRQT

Sequence of HA-SKP2 phosphorylated in vitro by AKT (32P-SKP2), Q13309 (Q13309 whole entry, looked up): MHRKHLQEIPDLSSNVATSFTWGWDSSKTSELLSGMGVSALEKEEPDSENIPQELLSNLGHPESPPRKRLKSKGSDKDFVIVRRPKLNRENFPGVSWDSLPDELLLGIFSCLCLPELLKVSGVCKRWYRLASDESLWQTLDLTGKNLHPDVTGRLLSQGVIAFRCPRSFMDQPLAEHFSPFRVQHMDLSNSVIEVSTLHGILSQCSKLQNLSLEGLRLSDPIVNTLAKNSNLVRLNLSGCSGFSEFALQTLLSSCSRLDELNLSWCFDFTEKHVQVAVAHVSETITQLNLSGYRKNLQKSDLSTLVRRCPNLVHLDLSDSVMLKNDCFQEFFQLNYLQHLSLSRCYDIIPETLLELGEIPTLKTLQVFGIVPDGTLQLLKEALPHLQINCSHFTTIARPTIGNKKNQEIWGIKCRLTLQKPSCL

Protein	removal of 32P from AKT-phosphorylated SKP2 [1]	dephosphorylation of p27 at S10 (phosphatase reaction, Western blot) [2]	dephosphorylation of p27 at T187 (phosphatase reaction, Western blot) [2]	also measured
B1	γ-phosphatase was able to dephosphorylate SKP2			
B2		Neither enzyme exhibited activity at S10	only PPM1H was effective at dephosphorylating p27 at T187	
B3		Neither enzyme exhibited activity at S10	only PPM1H was effective at dephosphorylating p27 at T187	
B4			Wildtype PPM1H but not PPM1H-H153L dephosphorylated p27 at T187	
B5	PPM1H lacked activity	PPM1H exhibited no activity at the S10 site in this assay	Wildtype PPM1H but not PPM1H-H153L dephosphorylated p27 at T187	phosphate release from synthetic phospho-peptide (Pi ColorLock Gold assay) (SKP2 S64 phospho-peptide): No evidence for PPM1H mediated dephosphorylation of the SKP2 phospho-peptides was observed; phosphate release from synthetic phospho-peptide (Pi ColorLock Gold assay) (SKP2 S72 phospho-peptide): No evidence for PPM1H mediated dephosphorylation of the SKP2 phospho-peptides was observed; phosphate release from synthetic phospho-peptide (Pi ColorLock Gold assay) (SKP2 S75 phospho-peptide): No evidence for PPM1H mediated dephosphorylation of the SKP2 phospho-peptides was observed; phosphate release from synthetic phospho-peptide (Pi ColorLock Gold assay) (p27 S10 phospho-peptide): Liberation of phosphate was observed with the p27 peptides, most notably with the T187 peptide; phosphate release from synthetic phospho-peptide (Pi ColorLock Gold assay) (p27 T157 phospho-peptide): Liberation of phosphate was observed with the p27 peptides, most notably with the T187 peptide; phosphate release from synthetic phospho-peptide (Pi ColorLock Gold assay) (p27 T187 phospho-peptide): Liberation of phosphate was observed with the p27 peptides, most notably with the T187 peptide
